Experimental data published in patent publication US20250326851A1 (Bayer, published 2025).
Where “and” joins values, the source holds several entries; their conditions need not be identical. Equal entries are not always repeated. Each block holds one binder with its values, some of them ahead of it.

How the values were obtained:
[1] = target: T1, mouse CCR8 on HEK293 cells (mouse, UniProt P56484 1-353); test: flow cytometry on murine CCR8-transfected HEK293 cells
T1 construct: whole, on cells; also called murine CCR8; murine CCR8-transfected HEK293 cells
T1 sequence (looked up): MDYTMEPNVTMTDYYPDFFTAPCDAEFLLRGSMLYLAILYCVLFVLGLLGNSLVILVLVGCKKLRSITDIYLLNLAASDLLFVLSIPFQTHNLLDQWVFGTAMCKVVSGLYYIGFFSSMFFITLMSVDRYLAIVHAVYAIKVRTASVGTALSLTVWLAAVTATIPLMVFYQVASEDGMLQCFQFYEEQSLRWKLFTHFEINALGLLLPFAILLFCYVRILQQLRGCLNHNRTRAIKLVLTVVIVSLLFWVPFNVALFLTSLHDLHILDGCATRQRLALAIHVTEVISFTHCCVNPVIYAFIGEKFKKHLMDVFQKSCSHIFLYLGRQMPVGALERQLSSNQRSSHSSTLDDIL
Procedure: (§1) The binding properties of murine surrogate antibodies were assessed using flow cytometry on HEK293 cells ectopically expressing murine CCR8.

[2] = target: T1, mouse CCR8 on HEK293 cells; test: cell-based or functional assay
[3] = target: T1, mouse CCR8 on HEK293 cells; test: cell-based or functional assay; remark: listed apart in the source
human CCR8 [4] = target: T2, human CCR8 (human, UniProt P51685 1-355); test: cell-based or functional assay
human CCR8 [5] = target: T2, human CCR8; test: flow cytometry using HEK293 cells, 0.0046 to 10 µg/mL (selectivity study)
human CCR8 [6] = target: T2, human CCR8; test: cell-based or functional assay; remark: listed apart in the source
[7] = target: T1, mouse CCR8 on HEK293 cells; test: flow cytometry, mouse CCR8-expressing HEK293 cells; reference TPP-15285
Procedure: as §1

Mouse FcγRIIIB/CD16b = target: T3, Mouse FcγRIIIB/CD16b (mouse); test: SPR; approximation, saturation not reached
T3 construct: The printed name is that of a human receptor; kept as printed; also called mFcγR variant
Procedure: (§2) The binding of murine surrogate antibodies to mouse Fc receptor variants (mFcγR and mFcRn) was analyzed by SPR.

[8] = target: T4, Mouse FcγRIIA/CD32a (R167) (mouse); test: SPR; approximation, saturation not reached
T4 construct: The printed name is that of a human receptor allotype; kept as printed; also called mFcγR variant
Procedure: as §2

Mouse FcγRIV/CD16-2 = target: T5, Mouse FcγRIV/CD16-2 (mouse, UniProt A0A0B4J1G0 21-203); test: SPR
T5 construct: also called mFcγR variant
T5 sequence: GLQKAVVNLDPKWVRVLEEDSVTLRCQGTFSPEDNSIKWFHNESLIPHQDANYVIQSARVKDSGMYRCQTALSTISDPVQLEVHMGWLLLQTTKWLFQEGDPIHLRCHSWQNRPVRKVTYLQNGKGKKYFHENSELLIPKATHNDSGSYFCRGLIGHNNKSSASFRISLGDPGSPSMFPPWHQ
Procedure: as §2

Mouse FcRn = target: T6, Mouse FcRn (mouse, UniProt Q61559 22-297; P01887 21-119); test: SPR
T6 construct: also called mFcRn; murine FcRn
T6 sequence (looked up) 1: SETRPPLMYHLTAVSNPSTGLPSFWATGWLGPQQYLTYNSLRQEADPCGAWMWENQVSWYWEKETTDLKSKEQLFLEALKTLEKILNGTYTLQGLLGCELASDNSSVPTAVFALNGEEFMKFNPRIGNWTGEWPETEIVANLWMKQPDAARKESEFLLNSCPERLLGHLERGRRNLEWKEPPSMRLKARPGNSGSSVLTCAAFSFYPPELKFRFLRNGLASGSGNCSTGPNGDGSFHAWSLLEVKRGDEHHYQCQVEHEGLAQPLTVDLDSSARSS
T6 sequence (looked up) 2: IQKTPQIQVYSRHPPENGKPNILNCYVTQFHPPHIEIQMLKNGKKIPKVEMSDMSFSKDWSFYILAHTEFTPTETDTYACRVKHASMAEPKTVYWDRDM
Procedure: as §2

T2 sequence (P51685 whole entry): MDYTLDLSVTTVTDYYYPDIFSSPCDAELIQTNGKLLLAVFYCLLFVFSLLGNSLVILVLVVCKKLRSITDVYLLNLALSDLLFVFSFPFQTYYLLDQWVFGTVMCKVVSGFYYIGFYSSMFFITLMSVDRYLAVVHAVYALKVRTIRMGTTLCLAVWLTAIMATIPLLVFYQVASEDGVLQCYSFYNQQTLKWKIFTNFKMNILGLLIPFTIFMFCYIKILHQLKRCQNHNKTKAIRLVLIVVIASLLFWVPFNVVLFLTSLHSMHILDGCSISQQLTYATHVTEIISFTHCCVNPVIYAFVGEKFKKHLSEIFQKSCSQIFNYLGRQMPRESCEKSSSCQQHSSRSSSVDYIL

B1: TPP-15285 (normal half-life) (antibody, V domains shown)
VH: EVQLLESGGGLVQPGGSLRLSCAASGFTFSDYGVHWVRQAPGKGLEWVSGVSWNGSRTHYADSVKGRFTISRDNSKNTLYLQMNSLRAEDTAVYYCVTRGAWGQGTLVTVSS
VL: not shown
notes: Anti-mouse CCR8 antibody, human VH/VL chimerized to mIgG2a (lambda)
- EC50 [1]: 12.5 nM and 1.8 µg/mL
- ADCC EC50 (ng/mL) at 20 hours; mouse CCR8-expressing HEK293 cells, mouse NK cells [2]: 32.6 ng/mL
- ADCC EC50 (pM) at 20 hours; mouse CCR8-expressing HEK293 cells, mouse NK cells [2]: 227 pM
- cumulative ADCP EC50 (ng/mL), 4 hours; mouse CCR8-expressing HEK293 cells, mouse M2 macrophages [3]: 54.5 ng/mL
- cumulative ADCP EC50 (ng/mL), 12 hours; mouse CCR8-expressing HEK293 cells, mouse M2 macrophages [3]: 22.7 ng/mL
- cumulative ADCP EC50 (pM), 4 hours; mouse CCR8-expressing HEK293 cells, mouse M2 macrophages [3]: 380 pM
- cumulative ADCP EC50 (pM), 12 hours; mouse CCR8-expressing HEK293 cells, mouse M2 macrophages [3]: 158 pM

B2: TPP-23411 (afucosylated) (antibody, human IgG1, lambda, V domains shown)
VH: EVQLLESGGGLVQPGGSLRLSCAASGFTFSSYGMHWVRQAPGKGLEWVSAINWNGGSTGYADSVKGRFTISRDNSKNTLYLQMNSLRAEDTAVYYCARGHHSGYDGRFFDYWGQGTLVTVSS
VL: QSVLTQPPSVSGAPGQRVTISCTGSSSNIGAGYNVHWYQQLPGTAPKLLIYTNNRRPSGVPDRFSGSKSGTSASLAISGLRSEDEADYYCAAWDASLSGWVFGGGTKLTVLG
modifications: afucosylated Fc glycan
notes: Fully human IgG1 lambda; In the ADA bridging assay it was biotinylated or SULFO-tagged; also called 21360-hIgG1wtlambda; anti-human CCR8 antibody hIgG1 isotype (afucosylated)
- ADCC EC50; HEK-hCCR8 target cells, NK92V effector cells (human CCR8 [4]): 0.0128 nM
- ADCC EC50; Tregs, donor 1100 (85.0% CCR8 expression), NK92V effector cells (human CCR8 [4]): 0.0281 nM
- ADCC EC50; Tregs, donor 1163 (31.4% CCR8 expression), NK92V effector cells (human CCR8 [4]): 0.0559 nM
- EC50 (human CCR8 [5]): 0.129 µg/mL
- ADCP EC50; Tregs, donor 1100 (63% CCR8 expression), human M2c macrophages (human CCR8 [6]): 0.143 nM
- ADCP EC50; Tregs, donor 1163 (40% CCR8 expression), human M2c macrophages (human CCR8 [6]): 0.44 nM

Now from value to binder, other results behind:

- ADCC EC50; HEK-hCCR8 target cells, NK92V effector cells (human CCR8 [4]): 0.0702 nM
- ADCP EC50; Tregs, donor 1100 (63% CCR8 expression), human M2c macrophages (human CCR8 [6]): 0.155 nM
- ADCP EC50; Tregs, donor 1163 (40% CCR8 expression), human M2c macrophages (human CCR8 [6]): 0.148 nM
B3: TPP-23411 (wild-type) (antibody, human IgG1, lambda, V domains shown)
VH: B2 VH
VL: B2 VL
modifications: conventional (fucosylated) glycosylation

- fold higher affinity compared to TPP-15825 [7]: 10 fold
- EC50 [1]: 0.495 nM and 0.071 µg/mL
- Kd (Mouse FcγRIIIB/CD16b): ~19000 nM
- Kd [8]: ~12000 nM
- ADCC EC50 (ng/mL) at 20 hours; mouse CCR8-expressing HEK293 cells, mouse NK cells [2]: 1.33 ng/mL
- ADCC EC50 (pM) at 20 hours; mouse CCR8-expressing HEK293 cells, mouse NK cells [2]: 9.28 pM
- cumulative ADCP EC50 (ng/mL), 4 hours; mouse CCR8-expressing HEK293 cells, mouse M2 macrophages [3]: 74.3 ng/mL
- cumulative ADCP EC50 (ng/mL), 12 hours; mouse CCR8-expressing HEK293 cells, mouse M2 macrophages [3]: 28.3 ng/mL
- cumulative ADCP EC50 (pM), 4 hours; mouse CCR8-expressing HEK293 cells, mouse M2 macrophages [3]: 518 pM
- cumulative ADCP EC50 (pM), 12 hours; mouse CCR8-expressing HEK293 cells, mouse M2 macrophages [3]: 197 pM
- Kd (Mouse FcγRIV/CD16-2): 1400 nM
B4: TPP-29338 (short half-life) (antibody, mouse IgG2a)
heavy: EVQLLESGGGLVQPGGSLRLSCAASGFTFSDYGVHWVRQAPGKGLEWVSGVSWNGSRTHYADSVKGRFTISRDNSKNTLYLQMNSLRAEDTAVYYCVTRGAWGQGTLVTVSSAKTTAPSVYPLAPVCGDTTGSSVTLGCLVKGYFPEPVTLTWNSGSLSSGVHTFPAVLQSDLYTLSSSVTVTSSTWPSQSITCNVAHPASSTKVDKKIEPRGPTIKPCPPCKCPAPNLLGGPSVFIFPPKIKDVLMISLSPIVTCVVVDVSEDDPDVQISWFVNNVEVHTAQTQTHREDYNSTLRVVSALPIQANDWMSGKEFKCKVNNKDLPAPIERTISKPKGSVRAPQVYVLPPPEEEMTKKQVTLTCMVTDFMPEDIYVEWTNNGKTELNYKNTEPVLDSDGSYFMYSKLRVEKKNWVERNSYSCSVVHEGLAQHHTTKSFSRTPGK
light: QSVLTQPPSASGTPGQRVTISCSGSSFNIGSHFVYWYQQLPGTAPKLLIYKNNQRPSGVPDRFSGSKSGTSASLAISGLRSEDEADYYCAAWDDSLNGPVFGGGTKLTVLGQPKSSPSVTLFPPSSEELETNKATLVCTITDFYPGVVTVDWKVDGTPVTQGMETTQPSKQSNNKYMASSYLTLTARAWERHSSYSCQVTHEGHTVEKSLSRADCS
- binding result (Mouse FcRn): no binding (tested: 15.6 to 2,000 nM (FcRn assay))
